For assay [1], the target named is T1, Vδ1 TCR on human Vδ1-positive γδ T cells (human, UniProt A0A1B0GX56 22-115).
T1 construct: also called Vδ1 γδ T-cells; cell surface Vδ1 TCR
Kind of assay: flow cytometry on primary Vδ1 γδ T cells, 4 C, anti-human IgG-APC secondary, median fluorescence. In general terms: A flow cytometer gives signals particle by particle.
Protocol: (§1) Target cells were stained with varying concentrations of antibody, followed by a fluorescent anti-human IgG detection antibody. All incubation steps were performed at 4° C. and mAb binding was determined using flow cytometry to measure the median level of fluorescence. Logarithmic four parameter dose-response curves were fitted using GraphPad Prism 9.
(§2) Target cells were detached from tissue culture flask, resuspended in PBS and seeded at a final density of 100,000 cells per well in v-bottom 96-well plates. Cells underwent centrifugation and the cell pellets were resuspended in FcR blocking reagent according to the manufacturer's instructions, and incubated for 20 minutes at 4C prior to a further wash. Antibodies were diluted to 500 nM in PBS and serially diluted 1:10 in PBS to 50 μM, and added to the cells, followed by a 20-minute incubation at 4C. To determine the quantity of mAb bound to the cell surface, the cells were then stained with a murine anti-human IgG secondary antibody, conjugated to APC (dilution: 1:100) in addition to a viability dye. Following 20-minute incubation at 4C, the cells were washed twice, and fluorescence measured using the MACSQuant.

The target in assay [2] is T1, Vδ1 TCR on human Vδ1-positive γδ T cells. The experiment in a line: flow cytometry on skin-derived Vδ1+ cells, 20 min at 4 C, anti-human Fc secondary.
Protocol: Cells were washed and stained with an anti-human Fc secondary antibody (Jackson Immunoresearch) and a viability dye for dead cells (eFlour 780, Invitrogen) for 20 minutes at 4° C. The cells were washed in FACS buffer and resuspended in Cell Fix (BD sciences) before analysis on a MACSQuant Analyser 10 flow cytometer (Miltenyi).
The next assay has as its target T2, EGFR on HT-29 cells (human, UniProt P00533).
T2 construct: full length, cell surface; also called EGFR+ colon cancer cell line HT-29; HT-29 tumour cell
Kind of assay: flow cytometry on HT-29 cells, 20 min at 4 C, anti-human IgG secondary.

The target in assay [3] is T3, human EGFR, recombinant protein (human, UniProt P00533 25-645).
T3 construct: Bought protein; also called human EGFR antigen
The experiment in a line: method not stated for this control.

Assay [4] has as its target T4, EGFR on A431 cells (human, UniProt P00533 25-1210).
T4 construct: whole, on cells; also called EGFR-positive A431; EGFR+A431 target cells
Kind of assay: flow cytometry on A431 cells, 4 C, anti-human IgG-APC secondary, median fluorescence.
Protocol: as §1, §2

The target in assay [5] is T3, human EGFR, recombinant protein. Kind of assay: SPR. (In general: Surface plasmon resonance follows binding to a sensor surface in real time, without labels.)
In assay [6] the target is T4, EGFR on A431 cells. Kind of assay: EGF blockade by flow cytometry: A431 cells pre-incubated with antibody 30 min at 4 C, then EGF-AF647; EGF binding MFI.
Protocol: Cells were then incubated for 1 hour at 4 degrees C., washed and stained with Live/dead dye (eFluor 520, Fisher) and incubated for a further 20 min at 4 degrees. The cells were washed in FACS buffer and resuspended in Cell Fix (BD sciences) before incubating overnight at 4° C. in the dark.
In assay [7] the target is T5, L1 (DV1-GV4), recombinant soluble human Vδ1/Vγ4 γδ TCR heterodimer (human).
T5 construct: Biotinylated in the DELFIA ranking assay; also called human TRDV1; human Vδ1 antigen
The experiment in a line: SPR (Reichert 4SPR): antibody on a Protein A chip, human Vδ1 antigen flowed; column 'Affinity to Vδ1 (nM)'.
Protocol: Human Vδ1 antigen was flown over the cell at a 1:3 dilution series with top concentrations of 50 nM with the following parameters: 180s association, 900s dissociation, flow rate 25 μL/min, running buffer PBS+0.05% Tween-20. The chip surface was regenerated using 20 mM phosphoric acid following each injection. All experiments were performed at room temperature. Steady state fitting was determined according to Langmuir 1:1 binding using TraceDrawer software (Reichert Technologies.

Assay [8] has as its target T5, L1 (DV1-GV4), recombinant soluble human …. The experiment in a line: SPR.
In assay [9] the target is T3, human EGFR, recombinant protein.
In assay [10] the target is T5, L1 (DV1-GV4), recombinant soluble human …. Kind of assay: SPR. The source holds these as a separate data set.
Assay [11] shares this target. Kind of assay: SPR. The source holds these as a separate data set.
The target is the same in assay [12]. The experiment in a line: SPR (Reichert 4SPR), antibody on Protein A chip, human Vδ1 antigen as analyte, 1:1 fit, mean of two replicates (Avg KD).
Description: The binding affinity of the antibodies to target (i.e. the Vδ1 chain of a γ TCR) is established by SPR analysis using a Reichert 4SPR instrument (Reichert Technologies).
The binding interaction of Vδ1 and the affinity-matured mAbs were modelled according to Langmuir 1:1 binding.
Assay [13] has as its target T1, Vδ1 TCR on human Vδ1-positive γδ T cells. The experiment in a line: flow cytometry binding to γδ T cells, Donor 2 (TS164); column head printed IC50 (nM), the text calls it EC50 of binding; same value in the table of FIG. 11C.
Protocol: (§3) (FIGS. 11A-11B) The level of binding by the V61 mAbs to two γδ T cell donors, ATS006 (FIG. 11A) and TS164 (FIG. 11B). γδ T cells were stained with varying concentrations of Vδ1 mAbs, followed by a fluorescent anti-human IgG detection antibody (xxx). All incubation steps were performed at 4° C. and mAb binding was determined using flow cytometry to measure the median level of fluorescence. Logarithmic four parameter dose-response curves were fitted using GraphPad Prism 9.
(§4) A range of target cells were assayed to determine the specificity and affinity of Vδ1 mAb binding. This included expanded skin-derived Vδ1 γδ T-cells, HEK293T cells, Raji cells, and multiple leukocyte subsets within human primary blood mononuclear cells. Adherent or semi-adherent cells (skin-derived Vδ1 γδ T-cells, HEK293T) were detached from tissue culture flask and resuspended in PBS. Similarly, non-adherent cell types (Raji, PBMC), were harvested and resuspended in PBS. Cells were seeded at a final density of 100,000 cells per well in v-bottom 96-well plates. Cells underwent centrifugation and the cell pellets were resuspended in FcR blocking reagent according to the manufacturer's instructions, and incubated for 20 minutes at 4C prior to a further wash. […] To determine the quantity of mAb bound to the cell surface, the cells were then stained with a murine anti-human IgG secondary antibody, conjugated to APC (product code . . . , dilution: 1:100). For Vδ1 γδ T-cells, HEK293T and Raji, the cells were also stained solely with a viability dye.
The target in assay [14] is T3, human EGFR, recombinant protein. Kind of assay: SPR (Reichert 4SPR): antibody captured on a Protein A chip, human EGFR flowed at 100 nM.
Assay [15] has as its target T1, Vδ1 TCR on human Vδ1-positive γδ T cells. The experiment in a line: flow cytometry binding to γδ T cells, Donor 1 (ATS006); column head printed IC50 (nM), the text calls it EC50 of binding; same value in the table of FIG. 11C.
Protocol: as §3, §4
Assay [16] addresses T6, cyno antigen DV1/GV77, recombinant cynomolgus Vδ1 γδ TCR heterodimer (cynomolgus monkey).
T6 construct: also called cyno TRDV1; Cyno DV1-77; not shown: Delta-chain CDR3/J and constant part, the GV77 gamma chain, and any tags
Kind of assay: DELFIA ELISA, cyno antigen, heat map; all column labels read ADT1-4-110, clone assigned by the HC/LC CDR3 pair as in FIG. 4A and FIGS. 22-23. In general terms: An ELISA detects its analyte on a solid surface through an enzyme-linked reagent.

For assay [17], the target named is Vδ1 TCR on cynomolgus γδ T cells (cynomolgus monkey). The experiment in a line: cell-based or functional assay.
Assay [18] deals with T3, human EGFR, recombinant protein. Kind of assay: SPR (Reichert 4SPR): antibody captured on a Protein A chip, human EGFR flowed at 100 nM. This is another data set of the same source.

Read-outs that look alike come from different tables or passages of the source.

T5 sequence (main, as listed by the source): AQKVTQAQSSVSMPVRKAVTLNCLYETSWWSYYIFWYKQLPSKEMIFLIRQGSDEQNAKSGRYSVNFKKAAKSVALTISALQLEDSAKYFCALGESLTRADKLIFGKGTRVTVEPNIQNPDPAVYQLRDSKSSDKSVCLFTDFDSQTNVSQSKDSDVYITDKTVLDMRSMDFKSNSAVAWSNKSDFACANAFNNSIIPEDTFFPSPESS
T1 sequence (A0A1B0GX56 22-115 limits assumed, stated change not applied): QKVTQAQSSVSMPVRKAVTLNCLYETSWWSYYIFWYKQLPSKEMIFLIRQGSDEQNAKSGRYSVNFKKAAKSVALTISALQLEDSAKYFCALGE
Sequence of Vδ1 TCR on cynomolgus γδ T cells (cynomolgus monkey) (chain, as listed by the source): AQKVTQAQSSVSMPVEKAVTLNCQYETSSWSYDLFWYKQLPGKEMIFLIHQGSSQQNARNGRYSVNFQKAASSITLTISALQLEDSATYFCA
T6 sequence (delta, as listed by the source limits assumed): as the sequence (chain, as listed by the source) above
Protocol for EGFR on HT-29 cells: After washing, cells were incubated for a further 20 minutes with anti-human IgG secondary antibodies (Jackson Immunoresearch) and live/dead stain (eFluor 780, Invitrogen) before washing and fixing using CellFix. The amount of antibody bound to each cell type was determined using flow cytometry (MACSQuant Analyser 10, Miltenyi Biotech).

B1: D1.3xFS1-67 control (bispecific antibody, V domains shown)
VH: QVQLQESGPGLVRPSQTLSLTCTVSGSTFSGYGVNWVRQPPGRGLEWIGMIWGDGNTDYNSALKSRVTMLVDTSKNQFSLRLSSVTAADTAVYYCARERDYRLDYWGQGSLVTVSS
VL: DIQMTQSPSSLSASVGDRVTITCRASGNIHNYLAWYQQKPGKAPKLLIYYTTTLADGVPSRFSGSGSGTDYTFTISSLQPEDIATYYCQHFWSTPRTFGQGTKVEIKR
notes: Only one entry is named for the whole molecule; it may hold heavy and light chains together; also called D1.3 FS1-67
Consider B1, for which the binding result in assay [1] is given as “no binding (tested: 500 nM)”. Moreover, in assay [2], the “MFI (at saturation)” value is about 0.495 MFI. Besides, a half-maximal response with EGFR on HT-29 cells (EC50) required 0.281 nM. Besides, the Kd in [3] is 1 nM. Also, in the assay with EGFR on A431 cells [4], the “EC50 (read off the curve)” value was about 8 nM.

B2: ADT1-4-2/ADT3-2 (bispecific antibody)
heavy: EVQLQQSGPGLVKPSQTLSLTCAISGDSVSSKSAAWNWIRQSPSRGLEWLGRTYYRSKWSTDYAASVKSRITINPDTSKNQLSLQLNSVTPEDTAVYYCARTWVGYVDRWGQGTLVTVSSASTKGPSVFPLAPSSKSTSGGTAALGCLVKDYFPEPVTVSWNSGALTSGVHTFPAVLQSSGLYSLSSVVTVPSSSLGTQTYICNVNHKPSNTKVDKKVEPKSCDKTHTCPPCPAPELAGAPSVFLFPPKPKDTLMISRTPEVTCVVVDVSHEDPEVKFNWYVDGVEVHNAKTKPREEQYNSTYRVVSVLTVLHQDWLNGKEYKCKVSNKALPAPIEKTISKAKGQPREPQVYTLPPSRDELEEGPVSLTCLVKGFYPSDIAVEWESTYGPENNYKTTPPVLDSDGSFFLYSKLTVSYWRWYKGNVFSCSVMHEALHNHYTQKSLSLSPG
light: DIQMTQSPPALSASVGDRVTITCRASQDINDWLAWYQHKPGKAPKLLIYDASSLESGVPLRFSGSGSGTEFTLTISSLQPDDFATYYCQQKYSAPQVTFGQGTRLEIKRTVAAPSVFIFPPSDEQLKSGTASVVCLLNNFYPREAKVQWKVDNALQSGNSQESVTEQDSKDSTYSLSSTLTLSKADYEKHKVYACEVTHQGLSSPVTKSFNRGEC
notes: mAb2; also called ADT1-4-2 × LEE; ADT1-4-2xLEE
Consider B2, for which the Kd is 1.49 nM in assay [5] and 0.24 nM in assay [7]. In addition, the “EC50 (read off the curve)” value in assay [1] was about 0.8 nM. In addition, the EC50 worked out at 0.276 nM in assay [2], 0.537 nM with EGFR on HT-29 cells and 2.92 nM with EGFR on A431 cells [6]. For the same molecule, the EC95 in assay [2] was determined as 2.7 nM.

B3: ADT1-4-2/ADT3-7 (bispecific antibody)
heavy: EVQLQQSGPGLVKPSQTLSLTCAISGDSVSSKSAAWNWIRQSPSRGLEWLGRTYYRSKWSTDYAASVKSRITINPDTSKNQLSLQLNSVTPEDTAVYYCARTWVGYVDRWGQGTLVTVSSASTKGPSVFPLAPSSKSTSGGTAALGCLVKDYFPEPVTVSWNSGALTSGVHTFPAVLQSSGLYSLSSVVTVPSSSLGTQTYICNVNHKPSNTKVDKKVEPKSCDKTHTCPPCPAPELAGAPSVFLFPPKPKDTLMISRTPEVTCVVVDVSHEDPEVKFNWYVDGVEVHNAKTKPREEQYNSTYRVVSVLTVLHQDWLNGKEYKCKVSNKALPAPIEKTISKAKGQPREPQVYTLPPSRDELEEGPVSLTCLVKGFYPSDIAVEWESTYGPENNYKTTPPVLDSDGSFFLYSKLTVSYWRWQQGNVFSCSVMHEALHNHYTQKSLSLSPG
light: DIQMTQSPPALSASVGDRVTITCRASQDINDWLAWYQHKPGKAPKLLIYDASSLESGVPLRFSGSGSGTEFTLTISSLQPDDFATYYCQQKYSAPQVTFGQGTRLEIKRTVAAPSVFIFPPSDEQLKSGTASVVCLLNNFYPREAKVQWKVDNALQSGNSQESVTEQDSKDSTYSLSSTLTLSKADYEKHKVYACEVTHQGLSSPVTKSFNRGEC
notes: mAb2; also called ADT1-4-2xLEE3
Turning to B3, the figures for the Kd in assay [5] and in [8] were 8.63 nM and 0.462 nM, respectively. Moreover, it took 8.66 nM to reach a half-maximal effect in the assay with EGFR on A431 cells [6] (EC50).

B4: ADT1-4-2/ADT3-5 (bispecific antibody)
heavy: EVQLQQSGPGLVKPSQTLSLTCAISGDSVSSKSAAWNWIRQSPSRGLEWLGRTYYRSKWSTDYAASVKSRITINPDTSKNQLSLQLNSVTPEDTAVYYCARTWVGYVDRWGQGTLVTVSSASTKGPSVFPLAPSSKSTSGGTAALGCLVKDYFPEPVTVSWNSGALTSGVHTFPAVLQSSGLYSLSSVVTVPSSSLGTQTYICNVNHKPSNTKVDKKVEPKSCDKTHTCPPCPAPELAGAPSVFLFPPKPKDTLMISRTPEVTCVVVDVSHEDPEVKFNWYVDGVEVHNAKTKPREEQYNSTYRVVSVLTVLHQDWLNGKEYKCKVSNKALPAPIEKTISKAKGQPREPQVYTLPPSRDELTKNQVSLTCLVKGFYPSDIAVEWESTYGPENNYKTTPPVLDSDGSFFLYSKLTVSYWRWYKGNVFSCSVMHEALHNHYTQKSLSLSPG
light: DIQMTQSPPALSASVGDRVTITCRASQDINDWLAWYQHKPGKAPKLLIYDASSLESGVPLRFSGSGSGTEFTLTISSLQPDDFATYYCQQKYSAPQVTFGQGTRLEIKRTVAAPSVFIFPPSDEQLKSGTASVVCLLNNFYPREAKVQWKVDNALQSGNSQESVTEQDSKDSTYSLSSTLTLSKADYEKHKVYACEVTHQGLSSPVTKSFNRGEC
notes: mAb2; also called ADT1-4-2xLEE1
On to B4, for which the Kd in [5] came out at 142 nM; in assay [8] it was 0.883 nM; in [9], 140 nM.

B5: ADT1-4-1 (antibody, IgG1, V domains shown)
VH: EVQLQQSGPGLVKPSQTLSLTCAISGDSVSSKSAAWNWIRQSPSRGLEWLGRTYYRSKWSTDYAASVKSRITINPDTSKNQLSLQLNSVTPEDTAVYYCARTWVGYADVWGQGTLVTVSS
VL: DIQMTQSPPALSASVGDRVTITCRASQDINDWLAWYQHKPGKAPKLLIYDASSLESGVPLRFSGSGSGTEFTLTISSLQPDDFATYYCQQRYSTPIVTFGQGTRLEIK
notes: IgG1
On to B5, for which the Kd in [10] and in [11] was 0.08 nM in each case.

B6: ADT1-4 (parental) (antibody, IgG1, V domains shown)
VH: QVQLQQSGPGLVKPSQTLSLTCAISGDSVSSKSAAWNWIRQSPSRGLEWLGRTYYRSKWSTDYAASVKSRITINPDTSKNQLSLQLNSVTPEDTAVYYCARTWSGYVDVWGQGTLVTVSS
VL: DIQMTQSPPALSASVGDRVTITCRASQDINDWLAWYQHKPGKAPKLLIYDASSLESGVPSRFSGSGSGTEFTLTISSLQPDDFATYYCQQSYSTPQVTFGQGTRLEIK
notes: IgG1; also called G04; 1245_P02_G04
With B6, the dissociation constant Kd in assay [8] amounted to 115 nM; in [12] it was 149 nM. The EC50 in assay [13] was 576 nM; in [15], 108 nM. For the same molecule, the binding result in [14] was “no binding (tested: 100 nM)”.

B7: ADT1-4-139 (antibody, IgG1, V domains shown)
VH: EVQLQQSGPGLVKPSQTLSLTCAISGDSVSSKSAAWNWIRQSPSRGLEWLGRTYYRSKWSTDYAASVKSRITINPDTSKNQLSLQLNSVTPEDTAVYYCARTWVGYVDYWGQGTLVTVSS
VL: DIQMTQSPPALSASVGDRVTITCRASQDINDWLAWYQHKPGKAPKLLIYDASSLESGVPLRFSGSGSGTEFTLTISSLQPDDFATYYCQQGYSTPQLTFGQGTRLEIK
notes: IgG1
Take B7: the “Heat Map (Cyno) value (ELISA signal)” value in assay [16] came to 57600.

B8: ADT1-4-2 (antibody, IgG1, V domains shown)
VH: EVQLQQSGPGLVKPSQTLSLTCAISGDSVSSKSAAWNWIRQSPSRGLEWLGRTYYRSKWSTDYAASVKSRITINPDTSKNQLSLQLNSVTPEDTAVYYCARTWVGYVDRWGQGTLVTVSS
VL: DIQMTQSPPALSASVGDRVTITCRASQDINDWLAWYQHKPGKAPKLLIYDASSLESGVPLRFSGSGSGTEFTLTISSLQPDDFATYYCQQKYSAPQVTFGQGTRLEIK
notes: IgG1
With B8, in assay [8], the Kd was determined as 0.522 nM. In [17], the “EC50 (read off the curve), TCR downregulation, donor AD8170” value lay within 4 to 5 nM and the “EC50 (read off the curve), TCR downregulation, donor AM945BA” value is about 2 nM. In addition, the binding result with EGFR on A431 cells [4] is “no binding (tested: 500 nM)”. Also, the binding result in assay [18] is reported as “no binding (tested: 100 nM)”.

Usually EC50 stands for the concentration at which the effect is half-maximal. Higher therefore signals lower potency in that assay. As a reminder, the Kd is the constant that tells how readily two partners part at equilibrium. Broadly, the EC50 (read off the curve) is the concentration at which the effect is half-maximal. A high value points to a need for much substance. Usually EC95 stands for the concentration needed for an effect of 95%. Low values mean greater potency, high ones weaker potency.

Values taken from patent publication US20240132599A1 (GAMMADELTA THERAPEUTICS, published 2024).
